We go through three molecules from patent publication US20200399353A1 (AGENCY FOR SCIENCE TECHNOLOGY AND RESEARCH, published 2020).

Experiment [1] has as its target T1, cell surface Annexin A2 (ANXA2) on live cells (human, UniProt P07355 2-339, N-linked glycan (N-glycan-dependent epitope; its position is not shown by an experiment)).
T1 construct: Endogenous ANXA2 on live human cancer cell lines (IGROV1, MCF7 and others) and hESC; also called annexin 2
Nature of the experiment: flow cytometry on live IGROV1 cells. In general terms: A flow cytometer gives signals particle by particle.

Experiment [2] has as its target T1, cell surface Annexin A2 (ANXA2) on live …. Nature of the experiment: flow cytometry.

T1 sequence (P07355 2-339 limits assumed): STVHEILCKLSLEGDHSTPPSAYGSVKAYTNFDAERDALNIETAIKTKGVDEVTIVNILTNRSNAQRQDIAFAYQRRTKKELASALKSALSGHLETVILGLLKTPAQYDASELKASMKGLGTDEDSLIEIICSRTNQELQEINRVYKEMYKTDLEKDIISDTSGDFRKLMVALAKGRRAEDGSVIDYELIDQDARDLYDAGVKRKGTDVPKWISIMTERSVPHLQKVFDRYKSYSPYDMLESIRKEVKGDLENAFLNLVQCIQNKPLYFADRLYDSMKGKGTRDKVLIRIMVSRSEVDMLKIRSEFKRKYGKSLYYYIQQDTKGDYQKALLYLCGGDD

B1: mAb 2448 (antibody, V domains shown)
VH: VQLQESGPDLVKPSRSLSLTCTVTGYSITSGYSWHWIRQFPGNKLEWMGYIHYSGSTKYNPSLKSRISITRDTSKNQFFLQLNSVTTEDAATYYCARGSNYGFDYWGQGTTLTVSS
VL: DIELTQSPSSLAVSVGEKVTMSCKSSQSLLYSNDQKNYLAWYQQKPGQSPKLLIYWASIRESGVPDRFTGSGSGTDFTLTISSVKAEDLAVYYCQQYYIYPLTFGAGTKLEIKR
On to B1, for which, in experiment [1], the binding result is “binds”.

B2: Chimeric mAb ch2448 (antibody, V domains shown)
VH: B1 VH
VL: B1 VL
notes: also called wildtype chimeric mAb ch2448
With B2, in experiment [2], the binding result was “binds”.

B3: Afucosylated ch2448 (antibody, V domains shown)
VH: B1 VH
VL: B1 VL
notes: also called aF-ch2448
In the case of B3, the binding result in experiment [2] is “binds”.
